Assay results taken from patent US20250152742A1, “COMPOSITIONS AND METHODS FOR NEUROLOGICAL DISEASES” (Trames Bio, Inc., priority 2022, published 2025).

Test system: engineered chimeric receptor SEQ ID NO: 33 and its mutants (human α7-nAChR ligand binding domain / human GlyRα1 ion pore domain) in Lenti-X 293T cells
Experiment: YFP fluorescence quenching anion reporter plate reader assay (percent quench, EC50)
Format: cell-based
Settings: for YFP fluorescence quenching using CNL001 (percent quench): receptor named in row; for YFP fluorescence quenching using Facinicline, 30 nM fac: ligand Facinicline 30 nM; for YFP fluorescence quenching using Facinicline, 300 nM fac: ligand Facinicline 300 nM; for YFP fluorescence quenching using Facinicline, 30 uM fac: ligand Facinicline 30 uM; for YFP fluorescence quenching using TC-6987, 1 uM tc6987: ligand TC-6987 1 uM; for YFP fluorescence quenching using TC-6987, 10 uM tc6987: ligand TC-6987 10 uM; for YFP fluorescence quenching using TC-6987, 500 uM tc6987: ligand TC-6987 500 uM; for YFP fluorescence quenching using Varenicline, 3 nM var: ligand Varenicline 3 nM; for YFP fluorescence quenching using Varenicline, 30 nM var: ligand Varenicline 30 nM; for YFP fluorescence quenching using Varenicline, 300 nM var: ligand Varenicline 300 nM; for YFP fluorescence quenching using Varenicline, 500 nM var: ligand Varenicline 500 nM; for YFP fluorescence quenching using Varenicline, 1 uM var: ligand Varenicline 1 uM
Summary of the method: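 Percent quench compares mean YFP signal over the final 10 s with the 15 s baseline before ligand, added in iodide-containing extracellular solution (pH 7.2). Cells were LX293T carrying a YFP anion reporter, transiently transfected with the channel construct; plates were preincubated 30 min at 37 °C.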

[1] = 1 nM CNL001, first column so headed
[2] = 1 nM CNL001, second column so headed
[3] = 3 nM brd (TC-5619/Bradanicline)
[4] = 10 nM CNL001, first column so headed
[5] = 10 nM CNL001, second column so headed
[6] = 30 nM brd (TC-5619/Bradanicline)
[7] = 50 nM CNL001, first column so headed
[8] = 50 nM CNL001, second column so headed
[9] = 100 nM CNL001, first column so headed
[10] = 100 nM CNL001, second column so headed
[11] = 300 nM brd (TC-5619/Bradanicline)
[12] = 1 uM CNL001, first column so headed
[13] = 1 uM CNL001, second column so headed

B1: CODA405: engineered receptor: Y210V in SEQ ID NO: 33 (protein)
chain: MRCSPGGVWLALAASLLHVSLQGEFQRKLYKELVKNYNPLERPVANDSQPLTVYFSLSLLQIMDVDEKNQVLTTNIWLQMSWTDHYLQWNVSEYPGVKTVRFPDGQIWKPDILLYNSADERFDATFHTNVLVNSSGHCQYLPPGIFKSSCPMDLKNFPMDVQTCKLKFGSWSYGGWSLDLQMQEADISGYIPNGEWDLVGIPGKRSERFVECCKEPYPDVTFTVTMRRRMGYYLIQMYIPSLLIVILSWISFWINMDAAPARVGLGITTVLTMTTQSSGSRASLPKVSYVKAIDIWMAVCLLFVFSALLEYAAVNFVSRQHKELLRFRRKRRHHKSPMLNLFQEDEAGEGRFNFSAYGMGPACLQAKDGISVKGANNSNTTNPPPAPSKSPEEMRKLFIQRAKKIDKISRIGFPMAFLIFNMFYWIIYKIVRREDVHNQ
modifications: synthetic sequence of chimeric LGIC
[1]
  YFP fluorescence quenching using CNL001 (percent quench): −16.246%
[2]
  YFP fluorescence quenching using CNL001 (percent quench): −4.217%
[3]
  YFP fluorescence quenching using TC-5619/Bradanicline (percent quench): 9.92%
[4]
  YFP fluorescence quenching using CNL001 (percent quench): −6.142%
[5]
  YFP fluorescence quenching using CNL001 (percent quench): −10.003%
[6]
  YFP fluorescence quenching using TC-5619/Bradanicline (percent quench): 4.37%
[7]
  YFP fluorescence quenching using CNL001 (percent quench): −11.054%
[8]
  YFP fluorescence quenching using CNL001 (percent quench): −10.06%
50 nM abt (ABT-126)
  YFP fluorescence quenching using ABT-126 (percent quench): −2.9%
[9]
  YFP fluorescence quenching using CNL001 (percent quench): −3.832%
[10]
  YFP fluorescence quenching using CNL001 (percent quench): −3.784%
100 nM CNL002
  YFP fluorescence quenching (percent quench): −14.3%
100 nM abt (ABT-126)
  YFP fluorescence quenching using ABT-126 (percent quench): −2.06%
100 nM azd0328
  YFP fluorescence quenching using AZD-0328 (percent quench): −8.13%
300 nM abt (ABT-126)
  YFP fluorescence quenching using ABT-126 (percent quench): −0.19%
300 nM azd0328
  YFP fluorescence quenching using AZD-0328 (percent quench): −3.35%
[11]
  YFP fluorescence quenching using TC-5619/Bradanicline (percent quench): 59%
[12]
  YFP fluorescence quenching using CNL001 (percent quench): 1.129%
[13]
  YFP fluorescence quenching using CNL001 (percent quench): 7.1%
1 uM CNL002
  YFP fluorescence quenching (percent quench): −7.56%
1 uM abt (ABT-126)
  YFP fluorescence quenching using ABT-126 (percent quench): −3.64%
10 uM ach (acetylcholine)
  YFP fluorescence quenching (percent quench): −6.31%
30 uM CNL002
  YFP fluorescence quenching (percent quench): −2.02%
30 uM azd0328
  YFP fluorescence quenching using AZD-0328 (percent quench): −2.86%
100 uM ach (acetylcholine)
  YFP fluorescence quenching (percent quench): −14.48%
1 mM ach (acetylcholine)
  YFP fluorescence quenching (percent quench): −2.82%
3 mM ach (acetylcholine)
  YFP fluorescence quenching (percent quench): 1.06%
  YFP fluorescence quenching using Facinicline, 30 nM fac: −26.25
  YFP fluorescence quenching using Facinicline, 300 nM fac: −23.52
  YFP fluorescence quenching using Facinicline, 30 uM fac: 0.83
  YFP fluorescence quenching using TC-6987, 1 uM tc6987: −22.63
  YFP fluorescence quenching using TC-6987, 10 uM tc6987: −23.03
  YFP fluorescence quenching using TC-6987, 500 uM tc6987: −40.88
First column
  YFP fluorescence quenching using Varenicline, 3 nM var: 7.317
  YFP fluorescence quenching using Varenicline, 30 nM var: 9.457
  YFP fluorescence quenching using Varenicline, 300 nM var: 15.503
  YFP fluorescence quenching using Varenicline, 500 nM var: 13.427
  YFP fluorescence quenching using Varenicline, 1 uM var: 9.032
Second column
  YFP fluorescence quenching using Varenicline, 3 nM var: 7.643
  YFP fluorescence quenching using Varenicline, 30 nM var: 9.134
  YFP fluorescence quenching using Varenicline, 300 nM var: 11.954
  YFP fluorescence quenching using Varenicline, 500 nM var: 10.784
  YFP fluorescence quenching using Varenicline, 1 uM var: 11.591

B2: CODA407: engineered receptor: Y210F in SEQ ID NO: 33 (protein)
chain: MRCSPGGVWLALAASLLHVSLQGEFQRKLYKELVKNYNPLERPVANDSQPLTVYFSLSLLQIMDVDEKNQVLTTNIWLQMSWTDHYLQWNVSEYPGVKTVRFPDGQIWKPDILLYNSADERFDATFHTNVLVNSSGHCQYLPPGIFKSSCPMDLKNFPMDVQTCKLKFGSWSYGGWSLDLQMQEADISGYIPNGEWDLVGIPGKRSERFFECCKEPYPDVTFTVTMRRRMGYYLIQMYIPSLLIVILSWISFWINMDAAPARVGLGITTVLTMTTQSSGSRASLPKVSYVKAIDIWMAVCLLFVFSALLEYAAVNFVSRQHKELLRFRRKRRHHKSPMLNLFQEDEAGEGRFNFSAYGMGPACLQAKDGISVKGANNSNTTNPPPAPSKSPEEMRKLFIQRAKKIDKISRIGFPMAFLIFNMFYWIIYKIVRREDVHNQ
modifications: synthetic sequence of chimeric LGIC
[1]
  YFP fluorescence quenching using CNL001 (percent quench): −10.845%
[2]
  YFP fluorescence quenching using CNL001 (percent quench): −2.629%
[3]
  YFP fluorescence quenching using TC-5619/Bradanicline (percent quench): −0.53%
[4]
  YFP fluorescence quenching using CNL001 (percent quench): 4.66%
[5]
  YFP fluorescence quenching using CNL001 (percent quench): 12.246%
[6]
  YFP fluorescence quenching using TC-5619/Bradanicline (percent quench): 8.71%
[7]
  YFP fluorescence quenching using CNL001 (percent quench): 29.307%
[8]
  YFP fluorescence quenching using CNL001 (percent quench): 41.78%
50 nM abt (ABT-126)
  YFP fluorescence quenching using ABT-126 (percent quench): −13.07%
[9]
  YFP fluorescence quenching using CNL001 (percent quench): 50.654%
[10]
  YFP fluorescence quenching using CNL001 (percent quench): 62.054%
100 nM CNL002
  YFP fluorescence quenching (percent quench): −12.47%
100 nM abt (ABT-126)
  YFP fluorescence quenching using ABT-126 (percent quench): 0.1%
100 nM azd0328
  YFP fluorescence quenching using AZD-0328 (percent quench): 0.85%
300 nM abt (ABT-126)
  YFP fluorescence quenching using ABT-126 (percent quench): 5.97%
300 nM azd0328
  YFP fluorescence quenching using AZD-0328 (percent quench): 1.25%
[11]
  YFP fluorescence quenching using TC-5619/Bradanicline (percent quench): 76.26%
[12]
  YFP fluorescence quenching using CNL001 (percent quench): 81.742%
[13]
  YFP fluorescence quenching using CNL001 (percent quench): 81.304%
1 uM CNL002
  YFP fluorescence quenching (percent quench): −3.93%
1 uM abt (ABT-126)
  YFP fluorescence quenching using ABT-126 (percent quench): 50.23%
10 uM ach (acetylcholine)
  YFP fluorescence quenching (percent quench): −3.75%
30 uM CNL002
  YFP fluorescence quenching (percent quench): 80.97%
30 uM azd0328
  YFP fluorescence quenching using AZD-0328 (percent quench): 82.08%
100 uM ach (acetylcholine)
  YFP fluorescence quenching (percent quench): −1.6%
1 mM ach (acetylcholine)
  YFP fluorescence quenching (percent quench): 71.65%
3 mM ach (acetylcholine)
  YFP fluorescence quenching (percent quench): 79.09%
  YFP fluorescence quenching using Facinicline, 30 nM fac: −21.94
  YFP fluorescence quenching using Facinicline, 300 nM fac: −22.46
  YFP fluorescence quenching using Facinicline, 30 uM fac: 82.63
  YFP fluorescence quenching using TC-6987, 1 uM tc6987: −15.22
  YFP fluorescence quenching using TC-6987, 10 uM tc6987: −19.89
  YFP fluorescence quenching using TC-6987, 500 uM tc6987: −33.32
First column
  YFP fluorescence quenching using Varenicline, 3 nM var: 2.441
  YFP fluorescence quenching using Varenicline, 30 nM var: 1.275
  YFP fluorescence quenching using Varenicline, 300 nM var: 13.119
  YFP fluorescence quenching using Varenicline, 500 nM var: 11.539
  YFP fluorescence quenching using Varenicline, 1 uM var: 8.397
Second column
  YFP fluorescence quenching using Varenicline, 3 nM var: 7.326
  YFP fluorescence quenching using Varenicline, 30 nM var: 12.96
  YFP fluorescence quenching using Varenicline, 300 nM var: 2.355
  YFP fluorescence quenching using Varenicline, 500 nM var: 6.571
  YFP fluorescence quenching using Varenicline, 1 uM var: 7.309
